The source of these data is article PMC5414174, “DNA replication licensing factor Cdc6 and Plk4 kinase antagonistically regulate centrosome duplication via Sas-6” (Nature Communications, 2017).

The labels stand for the following.
B1: GFP-tagged Cdc6 WT [human] / Myc-tagged Sas-6 [human] (parent)
chain 1: MPQTRSQAQATISFPKRKLSRALNKAKNSSDAKLEPTNVQTVTCSPRVKALPLSPRKRLGDDNLCNTPHLPPCSPPKQGKKENGPPHSHTLKGRRLVFDNQLTIKSPSKRELAKVHQNKILSSVRKSQEITTNSEQRCPLKKESACVRLFKQEGTCYQQAKLVLNTAVPDRLPAREREMDVIRNFLREHICGKKAGSLYLSGAPGTGKTACLSRILQDLKKELKGFKTIMLNCMSLRTAQAVFPAIAQEICQEEVSRPAGKDMMRKLEKHMTAEKGPMIVLVLDEMDQLDSKGQDVLYTLFEWPWLSNSHLVLIGIANTLDLTDRILPRLQAREKCKPQLLNFPPYTRNQIVTILQDRLNQVSRDQVLDNAAVQFCARKVSAVSGDVRKALDVCRRAIEIVESDVKSQTILKPLSECKSPSEPLIPKRVGLIHISQVISEVDGNRMTLSQEGAQDSFPLQQKILVCSLMLLIRQLKIKEVTLGKLYEAYSKVCRKQQVAAVDQSECLSLSGLLEARGILGLKRNKETRLTKVFFKIEEKEIEHALKDKALIGNILATGLP
chain 2: MSQVLFHQLVPLQVKCKDCEERRVSIRMSIELQSVSNPVHRKDLVIRLTDDTDPFFLYNLVISEEDFQSLKFQQGLLVDFLAFPQKFIDLLQQCTQEHAKEIPRFLLQLVSPAAILDNSPAFLNVVETNPFKHLTHLSLKLLPGNDVEIKKFLAGCLKCSKEEKLSLMQSLDDATKQLDFTRKTLAEKKQELDKLRNEWASHTAALTNKHSQELTNEKEKALQAQVQYQQQHEQQKKDLEILHQQNIHQLQNRLSELEAANKDLTERKYKGDSTIRELKAKLSGVEEELQRTKQEVLSLRRENSTLDVECHEKEKHVNQLQTKVAVLEQEIKDKDQLVLRTKEAFDTIQEQKVVLEENGEKNQVQLGKLEATIKSLSAELLKANEIIKKLQGDLKTLMGKLKLKNTVTIQQEKLLAEKEEKLQKEQKELQDVGQSLRIKEQEVCKLQEQLEATVKKLEESKQLLKNNEKLITWLNKELNENQLVRKQDVLGPSTTPPAHSSSNTIRSGISPNLNVVDGRLTYPTCGIGYPVSSAFAFQNTFPHSISAKNTSHPGSGTKVQFNLQFTKPNASLGDVQSGATISMPCSTDKENGENVGLESKYLKKREDSIPLRGLSQNLFSNSDHQRDGTLGALHTSSKPTALPSASSAYFPGQLPNS

Variants of B1 are the subject of the test. Put plainly: co-immunoprecipitation (anti-GFP IP, western blot quantified by ImageJ). To be noted: with Myc-tagged Sas-6 [human]; HEK293 cells co-transfected; three independent experiments; means ± s.d.; read off a plot. (In western blotting, separated proteins are transferred to a membrane and probed.)
With chain 1 S30D T527D, the ratio to parent came out at 0.42.
chain 1 S30A T527A: the ratio to parent turned out to be 1.7.
